Data as given in PMC4871749 (Nature chemical biology, 2016).
No end group written: not given here. *: point of attachment. Crotonyl(E) = C/C=C/C(=O)*

Assays:
[1] = target: Taf14 YEATS domain (construct of the fluorescence assay) (yeast) (UniProt P35189); assay: other fluorescence titration
[2] = target: T1, Taf14 YEATS domain (residues 1-137) (yeast, UniProt P35189 1-137); assay: crystal structure
T1 sequence (looked up): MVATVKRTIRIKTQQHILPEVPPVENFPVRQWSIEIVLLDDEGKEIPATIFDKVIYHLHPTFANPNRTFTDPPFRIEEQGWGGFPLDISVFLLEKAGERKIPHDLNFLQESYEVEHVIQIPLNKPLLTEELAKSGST

[3] = target: T2, Taf14 YEATS domain, Taf14 (1-132), uniformly 15N-labeled (yeast, UniProt P35189 1-132); assay: NMR titration
T2 sequence (looked up): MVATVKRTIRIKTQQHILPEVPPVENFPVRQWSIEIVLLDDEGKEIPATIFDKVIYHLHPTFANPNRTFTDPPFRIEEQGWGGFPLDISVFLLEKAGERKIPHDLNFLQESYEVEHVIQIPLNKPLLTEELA

Molecule | Kd [1] | binding result [2] | binding result [3]
H3K9cr5-13 peptide (residues 5-13 of H3, crotonylated at lysine 9) (from UniProt P61830 6-14) | 9.5 µM |  | 
QTARK(Crotonyl(E))STGG (peptide, UniProt P61830 6-14, looked up) [H3K9cr5-13 peptide (residues 5-13 of H3, crotonylated at lysine 9)] |  | binds | binds
QTARK(Ac)STGG (peptide, UniProt P61830 6-14, looked up) [H3K9ac5-13 peptide (residues 5-13 of H3, acetylated at lysine 9)] |  |  | binds
